Data reported in article PMC2807882, “Conservation of DNA-binding specificity and oligomerisation properties within the p53 family”.

T1: ΔNp63γ (Homo sapiens, UniProt Q9H3D4-6 1-393)
T1 sequence: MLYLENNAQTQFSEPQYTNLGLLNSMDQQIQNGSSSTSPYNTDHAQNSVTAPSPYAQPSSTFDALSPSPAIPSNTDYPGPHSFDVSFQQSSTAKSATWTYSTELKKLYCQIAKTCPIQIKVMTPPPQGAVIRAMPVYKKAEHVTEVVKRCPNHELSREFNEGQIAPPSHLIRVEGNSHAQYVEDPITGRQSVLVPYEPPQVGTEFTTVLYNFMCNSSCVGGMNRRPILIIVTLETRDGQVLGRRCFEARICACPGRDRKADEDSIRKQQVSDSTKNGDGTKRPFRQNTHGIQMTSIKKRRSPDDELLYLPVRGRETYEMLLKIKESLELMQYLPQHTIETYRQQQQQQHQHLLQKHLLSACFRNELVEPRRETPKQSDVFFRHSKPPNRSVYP

T2: Dmp53 (Drosophila melanogaster, UniProt Q9N6D8 1-385)
T2 sequence: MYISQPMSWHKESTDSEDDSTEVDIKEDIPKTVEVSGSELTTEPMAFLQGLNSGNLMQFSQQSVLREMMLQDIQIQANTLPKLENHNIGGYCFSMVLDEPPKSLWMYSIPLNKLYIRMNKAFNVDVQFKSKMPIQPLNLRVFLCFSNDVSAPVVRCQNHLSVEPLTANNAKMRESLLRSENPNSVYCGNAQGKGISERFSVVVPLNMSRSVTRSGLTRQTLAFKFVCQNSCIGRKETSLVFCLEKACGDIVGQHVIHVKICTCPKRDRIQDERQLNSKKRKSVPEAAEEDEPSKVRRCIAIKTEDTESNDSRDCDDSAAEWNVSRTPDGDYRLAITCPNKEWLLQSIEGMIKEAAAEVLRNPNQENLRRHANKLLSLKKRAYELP

T3: Drp53 (Danio rerio, UniProt P79734 1-373)
T3 sequence: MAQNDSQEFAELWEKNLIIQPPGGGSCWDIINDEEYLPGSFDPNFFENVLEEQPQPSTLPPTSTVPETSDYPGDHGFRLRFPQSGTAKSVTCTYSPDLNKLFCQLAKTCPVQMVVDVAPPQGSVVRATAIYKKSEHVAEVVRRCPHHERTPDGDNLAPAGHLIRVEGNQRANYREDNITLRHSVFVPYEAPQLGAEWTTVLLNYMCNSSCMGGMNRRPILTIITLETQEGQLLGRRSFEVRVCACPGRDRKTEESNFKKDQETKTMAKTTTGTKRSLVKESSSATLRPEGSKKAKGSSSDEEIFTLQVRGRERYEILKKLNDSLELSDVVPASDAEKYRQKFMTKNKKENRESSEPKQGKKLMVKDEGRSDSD

T4: ΔNp63α (Homo sapiens, UniProt Q9H3D4-2 1-586)
T4 sequence: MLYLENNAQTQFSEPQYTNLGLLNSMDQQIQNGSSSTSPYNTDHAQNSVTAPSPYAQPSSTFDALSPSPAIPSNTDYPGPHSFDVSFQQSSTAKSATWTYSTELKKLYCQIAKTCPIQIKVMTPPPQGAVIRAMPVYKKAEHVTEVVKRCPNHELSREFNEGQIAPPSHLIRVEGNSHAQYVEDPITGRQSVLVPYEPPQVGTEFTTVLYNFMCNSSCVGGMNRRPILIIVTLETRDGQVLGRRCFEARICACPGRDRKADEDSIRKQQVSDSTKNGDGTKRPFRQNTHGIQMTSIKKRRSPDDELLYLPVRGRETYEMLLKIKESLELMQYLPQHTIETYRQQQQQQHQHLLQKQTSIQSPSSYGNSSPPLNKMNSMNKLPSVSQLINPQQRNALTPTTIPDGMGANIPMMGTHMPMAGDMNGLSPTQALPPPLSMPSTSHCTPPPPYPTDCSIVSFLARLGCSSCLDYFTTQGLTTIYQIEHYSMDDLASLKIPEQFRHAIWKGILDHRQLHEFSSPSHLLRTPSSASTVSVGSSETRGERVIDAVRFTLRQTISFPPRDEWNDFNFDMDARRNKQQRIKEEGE

T5: ΔNp73β (Homo sapiens, UniProt O15350-9 1-450)
T5 sequence: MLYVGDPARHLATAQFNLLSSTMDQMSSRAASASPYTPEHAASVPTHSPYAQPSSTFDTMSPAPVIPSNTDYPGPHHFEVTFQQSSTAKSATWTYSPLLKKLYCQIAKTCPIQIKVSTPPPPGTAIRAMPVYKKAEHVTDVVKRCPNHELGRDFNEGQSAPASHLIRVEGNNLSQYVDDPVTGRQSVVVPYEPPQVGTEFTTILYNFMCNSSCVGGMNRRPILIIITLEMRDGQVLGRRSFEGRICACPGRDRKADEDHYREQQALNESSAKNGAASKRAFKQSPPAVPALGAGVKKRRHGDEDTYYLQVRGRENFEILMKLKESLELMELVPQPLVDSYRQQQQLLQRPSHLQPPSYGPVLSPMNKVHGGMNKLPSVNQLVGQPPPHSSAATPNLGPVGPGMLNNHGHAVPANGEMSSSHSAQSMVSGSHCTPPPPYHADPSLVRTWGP

T6: ΔNp63β (Homo sapiens, UniProt Q9H3D4-4 1-461)
T6 sequence: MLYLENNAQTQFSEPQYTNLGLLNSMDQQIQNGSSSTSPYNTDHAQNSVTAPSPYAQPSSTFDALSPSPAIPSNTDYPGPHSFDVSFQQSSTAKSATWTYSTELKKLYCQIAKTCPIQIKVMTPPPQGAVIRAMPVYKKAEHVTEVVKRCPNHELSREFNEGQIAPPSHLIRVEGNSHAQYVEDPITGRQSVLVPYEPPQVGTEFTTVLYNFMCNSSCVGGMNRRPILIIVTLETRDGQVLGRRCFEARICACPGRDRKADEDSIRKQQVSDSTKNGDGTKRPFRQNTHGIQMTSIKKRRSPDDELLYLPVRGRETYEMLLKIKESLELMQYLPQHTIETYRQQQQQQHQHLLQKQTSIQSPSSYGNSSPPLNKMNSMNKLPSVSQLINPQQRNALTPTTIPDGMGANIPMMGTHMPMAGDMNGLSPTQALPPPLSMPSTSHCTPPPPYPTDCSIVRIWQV


Tests used:
Assay in all cases: anisotropy competition; 25 mM NaPi, 225 mM NaCl, 10% v/v glycerol, 5 mM DTT, 0.2 mg/mL BSA, 22°C; 20 nM labelled DNA; pH not stated for the binding assay
Conditions in all cases: protein: recombinant; tags: N-terminal 6xHis-lipoyl-TEV tag, cleaved; chain copies: 4
Xlp53 [1] = target: T7, Xlp53 (Xenopus laevis, UniProt Q7T1D0 1-362)
ΔNp63γ = target: T1, ΔNp63γ
Mmp53 = Mmp53 (Mus musculus, UniProt P02340 1-390)
Hsp53 = Hsp53 (Homo sapiens, UniProt P04637 1-393)
Dmp53 = target: T2, Dmp53
Xlp53 [2] = target: T7, Xlp53; remark: listed apart in the source
Drp53 = target: T3, Drp53
ΔNp63α = target: T4, ΔNp63α
ΔNp73β = target: T5, ΔNp73β
ΔNp63β = target: T6, ΔNp63β

T7 sequence (Q7T1D0 entry or part of it): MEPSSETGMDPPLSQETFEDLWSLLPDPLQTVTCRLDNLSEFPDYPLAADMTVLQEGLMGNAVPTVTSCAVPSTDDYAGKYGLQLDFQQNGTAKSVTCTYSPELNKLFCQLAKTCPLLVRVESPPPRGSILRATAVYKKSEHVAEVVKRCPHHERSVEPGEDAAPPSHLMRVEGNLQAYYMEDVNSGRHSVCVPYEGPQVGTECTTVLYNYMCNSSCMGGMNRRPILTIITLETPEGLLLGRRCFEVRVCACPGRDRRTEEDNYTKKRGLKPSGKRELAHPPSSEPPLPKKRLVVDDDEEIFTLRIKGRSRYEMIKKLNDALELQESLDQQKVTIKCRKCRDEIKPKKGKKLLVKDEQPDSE
Chain of Mmp53 (P02340 whole entry): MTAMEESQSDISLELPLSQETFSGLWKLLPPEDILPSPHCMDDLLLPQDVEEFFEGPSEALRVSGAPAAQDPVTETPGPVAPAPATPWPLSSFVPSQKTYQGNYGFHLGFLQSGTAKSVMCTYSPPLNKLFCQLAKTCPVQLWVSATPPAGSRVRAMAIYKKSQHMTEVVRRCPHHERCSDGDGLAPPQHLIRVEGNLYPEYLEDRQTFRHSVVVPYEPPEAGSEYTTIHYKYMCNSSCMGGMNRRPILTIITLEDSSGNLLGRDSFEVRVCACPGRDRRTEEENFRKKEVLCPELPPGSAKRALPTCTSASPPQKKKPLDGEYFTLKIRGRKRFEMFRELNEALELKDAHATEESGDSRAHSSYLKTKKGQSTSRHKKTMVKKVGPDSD
Chain of Hsp53 (P04637 whole entry): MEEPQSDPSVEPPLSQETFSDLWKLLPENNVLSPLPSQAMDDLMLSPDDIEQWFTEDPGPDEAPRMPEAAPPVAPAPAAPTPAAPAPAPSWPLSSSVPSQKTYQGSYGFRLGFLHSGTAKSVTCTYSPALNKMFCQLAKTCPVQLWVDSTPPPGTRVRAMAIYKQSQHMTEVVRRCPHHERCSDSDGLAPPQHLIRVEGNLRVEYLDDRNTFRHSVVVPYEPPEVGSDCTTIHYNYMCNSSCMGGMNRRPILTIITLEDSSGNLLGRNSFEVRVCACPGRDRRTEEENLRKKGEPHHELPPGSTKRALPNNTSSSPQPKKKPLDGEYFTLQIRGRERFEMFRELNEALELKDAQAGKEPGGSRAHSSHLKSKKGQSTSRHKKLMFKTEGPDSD

Row | Binder | Kd (Xlp53 [1]) | binding signal (ΔNp63γ) | binding signal (Mmp53) | binding signal (Hsp53) | binding signal (Dmp53) | binding signal (Xlp53 [2]) | binding signal (Drp53) | binding signal (ΔNp63α) | binding signal (ΔNp73β) | binding signal (ΔNp63β)
1 | A5G (dsDNA) DNA 1: CGCGGACGTGTCCGGACATGTCCCGC DNA 2: GCGGGACATGTCCGGACACGTCCGCG | -6.64 log10(M) |  |  |  |  |  |  |  |  | 
2 | A3C (dsDNA) DNA 1: CGCGGCCATGTCCGGACATGTCCCGC DNA 2: GCGGGACATGTCCGGACATGGCCGCG |  | 0.93 ΔlogKd vs ref | 0.46 ΔlogKd vs ref | 0.66 ΔlogKd vs ref | 0.75 ΔlogKd vs ref | 0.82 ΔlogKd vs ref |  |  |  | 
3 | G7C (dsDNA) DNA 1: CGCGGACATCTCCGGACATGTCCCGC DNA 2: GCGGGACATGTCCGGAGATGTCCGCG | -5.7 log10(M) | 1.68 ΔlogKd vs ref | 0.67 ΔlogKd vs ref | 0.9 ΔlogKd vs ref | 1.51 ΔlogKd vs ref |  | 1.3 ΔlogKd vs ref | 1.33 ΔlogKd vs ref | 1.8 ΔlogKd vs ref | 1.45 ΔlogKd vs ref
4 | A5C (dsDNA) DNA 1: CGCGGACCTGTCCGGACATGTCCCGC DNA 2: GCGGGACATGTCCGGACAGGTCCGCG |  | 0.58 ΔlogKd vs ref | 0.4 ΔlogKd vs ref | 0.45 ΔlogKd vs ref | 0.54 ΔlogKd vs ref | 0.48 ΔlogKd vs ref | 0.77 ΔlogKd vs ref | 0.3 ΔlogKd vs ref | 0.64 ΔlogKd vs ref | 0.57 ΔlogKd vs ref
5 | T6C (dsDNA) DNA 1: CGCGGACACGTCCGGACATGTCCCGC DNA 2: GCGGGACATGTCCGGACGTGTCCGCG |  | 0.52 ΔlogKd vs ref | 0.36 ΔlogKd vs ref | 0.53 ΔlogKd vs ref | 0.25 ΔlogKd vs ref | 0.7 ΔlogKd vs ref | 0.65 ΔlogKd vs ref | 0.25 ΔlogKd vs ref | 0.62 ΔlogKd vs ref | 0.57 ΔlogKd vs ref
6 | G2C (dsDNA) DNA 1: CGCGCACATGTCCGGACATGTCCCGC DNA 2: GCGGGACATGTCCGGACATGTGCGCG |  | 0.37 ΔlogKd vs ref | 0.28 ΔlogKd vs ref | 0.37 ΔlogKd vs ref |  | 0.27 ΔlogKd vs ref | 0.41 ΔlogKd vs ref | 0.15 ΔlogKd vs ref | 0.44 ΔlogKd vs ref | 0.36 ΔlogKd vs ref
